Assay results as given in publication PMC4742757, “The Prodomain-bound Form of Bone Morphogenetic Protein 10 Is Biologically Active on Endothelial Cells*” (The Journal of Biological Chemistry, 2015).

Assays:
[1] = target: the molecule itself; experiment: non-reducing SDS-PAGE; peak gel filtration fraction of purified pBMP10 on non-reducing SDS-PAGE; Coomassie stain and anti-BMP10 immunoblot
[2] = target: T1, BMPR-II extracellular domain (ECD), human, residues 27-150 (human, UniProt Q13873-1 27-150); experiment: native gel or EMSA; 10% native PAGE of purified pBMP10 complex alone or with BMPR-II ECD (molar ratio pBMP10:BMPR-II ECD 1:1, 1:2, 1:4); bands excised and immunoblotted for BMP10 GFD and prodomain; details: both partners purified
T1 construct: Bone morphogenetic protein receptor type II, human, extracellular domain, residues 27-150 (NM_001204); Cloned in pET39b as DsbA-(His)6-TEV site-BMPR2 ECD; also called BMPR-II ECD; BMPR2 ECD; source: E. coli Rosetta DE3, periplasmic extract, purified (Ni-NTA, TEV cleavage, second Ni-NTA flowthrough, S75 gel filtration); not shown: DsbA, N-terminal, cleaved; His6, N-terminal, cleaved
T1 sequence (looked up): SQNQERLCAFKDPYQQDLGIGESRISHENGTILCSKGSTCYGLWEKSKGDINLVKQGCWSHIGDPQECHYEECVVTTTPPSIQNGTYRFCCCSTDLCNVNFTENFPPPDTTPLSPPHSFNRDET

binding result [2]: binds
B1: BMP10 growth factor domain (GFD), recombinant human, from the in-house pBMP10 complex (ligand, UniProt O95393 317-424, looked up)
chain: NAKGNYCKRTPLYIDFKEIGWDSWIIAPPGYEAYECRGVCNYPLAEHLTPTKHAIIQALVHLKNSQKASKACCVPTKLEPISILYLDKGVVTYKFKYEGMAVSECGCR
notes: Bone morphogenetic protein 10, human; the mature growth factor domain cut from full-length proBMP10 by furin; Expressed from full-length proBMP10 cDNA, co-transfected with furin; Covalently linked (D-form) and non-covalently linked (M-form) dimers are both in the preparation; also called BMP10 GFD; mature BMP10; source: HEK EBNA cells transfected with proBMP10 and furin in pCEP4; purified from …
binding result [1]: binds
